Measurements: patent US20220064329A1 (Novo Nordisk, published 2022)
Changes are numbered by the printed parent chain. One block for each binder: values may come before it.

How the values were obtained:
[1] = biological target: T1, recombinant human activated Factor VII (FVIIa) (human, UniProt P08709 61-212; P08709 213-466, Gla domain: ten glutamate residues may be gamma-carboxylated); experiment: cell-based or functional assay
T1 sequence 1: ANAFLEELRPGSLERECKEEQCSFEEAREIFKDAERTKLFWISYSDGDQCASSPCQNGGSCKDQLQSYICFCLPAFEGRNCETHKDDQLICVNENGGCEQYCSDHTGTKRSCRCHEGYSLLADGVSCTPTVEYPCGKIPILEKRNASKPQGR
T1 sequence 2: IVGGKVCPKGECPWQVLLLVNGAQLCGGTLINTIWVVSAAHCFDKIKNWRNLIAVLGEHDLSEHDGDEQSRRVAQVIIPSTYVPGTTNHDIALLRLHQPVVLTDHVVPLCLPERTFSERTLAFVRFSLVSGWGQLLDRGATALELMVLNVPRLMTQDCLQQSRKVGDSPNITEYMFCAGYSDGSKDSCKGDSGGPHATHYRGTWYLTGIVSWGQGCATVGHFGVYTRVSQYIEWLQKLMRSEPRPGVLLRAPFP

[2] = biological target: T1, recombinant human activated Factor VII …; experiment: SPR (Biacore T200), antibody captured on anti-murine IgG, FVIIa injected at 5-135 nM, 1:1 model
Method: Anti-murine IgG (by GE Healthcare) was immobilised on a CM4 sensor chip using standard amine coupling chemistry kit (both supplied by GE Healthcare). […] The running buffer was prepared by diluting 10-fold the 10×HBS-P buffer (supplied by GE Healthcare) and supplemented with 1 mg/ml BSA and 5 mM CaCl₂) to give 10 mM HEPES, 150 mM NaCl, 0.05% v/v Polysorbate 20(P20), pH 7.4, 5 mM CaCl₂), 1 mg/ml bovine serum albumin (BSA). […] Regeneration of the chip was achieved using regeneration buffer consisting of 10 mM Gly-HCl pH 1.7 (supplied by GE Healthcare). Binding data were analysed according to a 1:1 model using BiaEvaluation 4.1 supplied by the manufacturer (Biacore AB, Uppsala, Sweden).

[3] = biological target: T2, recombinant human activated FVII (FVIIa) (human, UniProt P08709 61-212; P08709 213-466, ten glutamate residues of the Gla domain may be gamma-carboxylated); experiment: cell-based or functional assay
T2 sequence 1: T1 sequence 1
T2 sequence 2: T1 sequence 2

- AT inhibition (kinh %) [1]: 103%
- TGT activity (% FVIIa) [1]: 93 % FVIIa
- Kd [2]: 0.49 nM
B6: mAb0587 (antibody, V domains shown)
VH: QVQLQQSGAELLKPGASVKISCKATDYTFSRYWIEWVKQRPGHGLEWIGEILPGSVNIKYNEIFKGKATFTAETSSNTAYMQLSSLTSEDSAVYYCTRTPYLQRGAYWGQGTLVTVSA
VL: QIVLTQSPAIMSASPGEKVTITCSASSSVSYMFWFQQKPGTSPKLWIYSTSNLASGVPARFSGSGSGTSYSLTISRMEAEDAATYYCQQRSSYPLTFGAGTKLELK
notes: fully murine, hybridoma-derived; also called 12F39

- AT inhibition (kinh %) [1]: 525%
- TGT activity (% FVIIa) [1]: 141 % FVIIa
- Kd [2]: 9.3 nM
B8: mAb0018 (antibody, V domains shown)
VH: QITLKESGPGILKPSQTLSLTCSFSGFSLSTSGLGVGWIRQTSGKGLEWLAHIWWDDDKYYYPPLKSQLTISKDTSRNQVFLKITSVDTADTATYYCARRAFYDGYYGPMEYWGQGTSVTVSS
VL: DIVLSQSPSSLAVSVGEKVTMSCKSSQSLLYSSNQKNSLAWYQHKPGQSPKLLIYWASTRESGVPDRFTGSGSGTDFTLTISNVKAEDLAVYYCHQYYNYLLTFGPGTKLELK
notes: fully murine, hybridoma-derived; also called 8F19

- AT inhibition (kinh %) [1]: 77%
- TGT activity (% FVIIa) [1]: 91 % FVIIa
- Kd [2]: 0.58 nM
B12: mAb0578 (antibody, V domains shown)
VH: QVQLQQSGAELMKPGASVKISCKATGYTFNTYWIEWVKQRPGHGLEWIGEILPGRGTTNYNENFKGKATITADISSNTAYLQLSSLTGEDSAVYYCARLTPLSLRTGYWGQGTTLTVSS
VL: DILLTQSPAILSVSPGERVSFSCRASQSIGTSIHWYQQRTNGSPRLLIKYASESISGIPSRFSGSGSGTDFTLSINSVESEDIADYYCQQSNSWPFTFGSGTKLEIK
notes: fully murine, hybridoma-derived; also called 12F19

- AT inhibition (kinh %) [1]: 24%
- TGT activity (% FVIIa) [1]: 75 % FVIIa
- Kd [2]: 0.16 nM
B13: mAb0004 (antibody, V domains shown)
VH: QVQLKESGPGLVAPSQSLSITCTVSGFSLTDYGVSWIRQPPGKGLEWLGVIWGGGNTYNNSALKSRLSISKDNSKSQVFLKMNSLQADDTAMYFCAKHGYYGYVMDYWGQGTSVTVSS
VL: DIVMTQSHKIMSTLVGDRVSITCKASQDVDPAVAWYQQKPGQYPKLLIYWASTRHTGVPDRFTGSGSGTDFTLTISNVQSEDLADYFCQQYSKYPYTFGGGTKLEIK
notes: fully murine, hybridoma-derived; also called 11F19

Further lines, the binder ahead of its results:

B1: mAb0001 (antibody, V domains shown)
VH: EIQLQQTGPELVKPGASVKISCKASGYSFTDYIMVWMKQSQGKTLEWIGKINPYYGDISYNLKFKGKATLTVDKSSSTVYMQLNSLASEDSAVYYCARGFYYDYFDQWGQGTTLTVSS
VL: DVMVTQTPLSLPVNLGDQASISCRSSQSLVHSNGNTYLHWYLQKPGQSPKLLIYRVSDRFSGVPDRFSGSGSGTDFTLKISRVEAEDLGVYFCSQSTHVPPTFGGGTKLEIK
notes: fully murine, hybridoma-derived; also called 11F26
- AT inhibition (kinh %) [1]: 82%
- TGT activity (% FVIIa) [1]: 109 % FVIIa
- Kd [2]: 0.17 nM

B2: mAb0007 (antibody, V domains shown)
VH: DVQLQESGPGLVEPSQSLSLTCTVTGYSITSDCAWSWIRQFPGNKLEWMGYINYSGSTNYNPSLKSRISITRDTSKNQFFLRLNSVTGEDTATYYCARSVNYYGNSFAVGYWGQGTSVTVSS
VL: DIVMTQSPATLSVTPGDRVSLSCRASQSISDYLHWYQHKSHESPRLLIKYVSQPISGIPSRFSGSGSGSEFTLSINSVEPEDVGVYYCQNGHSFPLTFGAGTKLELK
notes: fully murine, hybridoma-derived; also called 11F34
- AT inhibition (kinh %) [1]: 121%
- TGT activity (% FVIIa) [1]: 113 % FVIIa
- Kd [2]: 0.25 nM

B3: mAb0544 (antibody, V domains shown)
VH: B2 VH with E13K, S36N, K76Q, Q78H, R82Q, N84S, G88A, A97T, T116I
VL: DIVMSQSPATLSVTPGDRVSLSCRTSQDIGDYLHWYRQKSHESPRLLIKYTSQSVSGIPSRFSGSGSGSDFTLSINTVEPEDVGLYYCQNGHSFPLTFGTGTRLELK
notes: fully murine, hybridoma-derived; also called 11F9
- AT inhibition (kinh %) [1]: 111%
- TGT activity (% FVIIa) [1]: 103 % FVIIa
- Kd [2]: 0.27 nM

B4: mAb0552 (antibody, V domains shown)
VH: B2 VH with E13K, S36N, Q78H, R82Q, G88A, N101D, Y103F, T119A
VL: B2 VL with H38Q, V51S, P54S, E70D
notes: fully murine, hybridoma-derived; also called 11F18
- AT inhibition (kinh %) [1]: 118%
- TGT activity (% FVIIa) [1]: 104 % FVIIa
- Kd [2]: 0.76 nM

B5: mAb0005 (antibody, V domains shown)
VH: B2 VH with I70V, N84S, G88A, A97T
VL: B2 VL with P15A, S28G, H38Q, V51T, I55V
notes: fully murine, hybridoma-derived; also called 11F2; mAb005
- AT inhibition (kinh %) [1]: 133%
- TGT activity (% FVIIa) [1]: 115 % FVIIa
- Kd [2]: 0.14 nM

B7: biAb0244 (bispecific antibody, human IgG4 S228P, kappa)
heavy 1: QVQLKESGPGLVAPSQSLSITCTVSGFSLTDYGVSWIRQPPGKGLEWLGVIWGGGNTYNNSALKSRLSISKDNSKSQVFLKMNSLQADDTAMYFCAKHGYYGYVMDYWGQGTSVTVSSASTKGPSVFPLAPCSRSTSESTAALGCLVKDYFPEPVTVSWNSGALTSGVHTFPAVLQSSGLYSLSSVVTVPSSSLGTKTYTCNVDHKPSNTKVDKRVESKYGPPCPPCPAPEFLGGPSVFLFPPKPKDTLMISRTPEVTCVVVDVSQEDPEVQFNWYVDGVEVHNAKTKPREEQFNSTYRVVSVLTVLHQDWLNGKEYKCKVSNKGLPSSIEKTISKAKGQPREPQVYTLPPSQEEMTKNQVSLTCLVKGFYPSDIAVEWESNGQPENNYKTTPPVLDSDGSFLLYSKLTVDKSRWQEGNVFSCSVMHEALHNHYTQKSLSLSLGK
light 1: DIVMTQSHKIMSTLVGDRVSITCKASQDVDPAVAWYQQKPGQYPKLLIYWASTRHTGVPDRFTGSGSGTDFTLTISNVQSEDLADYFCQQYSKYPYTFGGGTKLEIKRTVAAPSVFIFPPSDEQLKSGTASVVCLLNNFYPREAKVQWKVDNALQSGNSQESVTEQDSKDSTYSLSSTLTLSKADYEKHKVYACEVTHQGLSSPVTKSFNRGEC
heavy 2: not shown
light 2: DIVMTQTPLSSPVTLGQPASISCRSSQSLVHRQGNTYFHWLQQRPGQPPRLLIYKVSNRFSGVPDRFSGSGAGTDFTLKISRVEAEDVGVYYCSQSTHVPYTFGQGTKLEIKRTVAAPSVFIFPPSDEQLKSGTASVVCLLNNFYPREAKVQWKVDNALQSGNSQESVTEQDSKDSTYSLSSTLTLSKADYEKHKVYACEVTHQGLSSPVTKSFNRGEC
- Stimulation (fold): FXa generated by FVIIa with lipidated TLT-1 and 100 nM biAb, relative to free FVIIa [3]: 2.7 fold

B9: biAb0241 (bispecific antibody, human IgG4 S228P, kappa)
heavy 1: QVQLQESGPGLVKPSQTLSLTCTVSGYSISSDSAWSWIRQPPGKGLEWIGYIQYSGSTNYNPSLKSRVTISRDTSKNQFSLKLSSVTAADTAVYYCARSVNYYGNSFAVGYWGQGTLVTVSSASTKGPSVFPLAPCSRSTSESTAALGCLVKDYFPEPVTVSWNSGALTSGVHTFPAVLQSSGLYSLSSVVTVPSSSLGTKTYTCNVDHKPSNTKVDKRVESKYGPPCPPCPAPEFLGGPSVFLFPPKPKDTLMISRTPEVTCVVVDVSQEDPEVQFNWYVDGVEVHNAKTKPREEQFNSTYRVVSVLTVLHQDWLNGKEYKCKVSNKGLPSSIEKTISKAKGQPREPQVYTLPPSQEEMTKNQVSLTCLVKGFYPSDIAVEWESNGQPENNYKTTPPVLDSDGSFLLYSKLTVDKSRWQEGNVFSCSVMHEALHNHYTQKSLSLSLGK
light 1: EIVLTQSPATLSLSPGERATLSCRASQGISDYLHWYQQKPGEAPRLLIKYTSQPATGIPARFSGSGSGTDFTLTISSLEPEDFAVYYCQNGHSFPLTFGQGTKLEIKRTVAAPSVFIFPPSDEQLKSGTASVVCLLNNFYPREAKVQWKVDNALQSGNSQESVTEQDSKDSTYSLSSTLTLSKADYEKHKVYACEVTHQGLSSPVTKSFNRGEC
heavy 2: not shown
light 2: DIVVSQSPSSLAVSAGEKVTMSCKSSQSLLNSRTRKNYLAWYQQKPGQSPKLLIYWASTRESGVPDRFTGSGSGTDFTLTISSVQAEDLAVYYCKQSYNLLTFGAGTKLELKRTVAAPSVFIFPPSDEQLKSGTASVVCLLNNFYPREAKVQWKVDNALQSGNSQESVTEQDSKDSTYSLSSTLTLSKADYEKHKVYACEVTHQGLSSPVTKSFNRGEC
- Stimulation (fold): FXa generated by FVIIa with lipidated TLT-1 and 100 nM biAb, relative to free FVIIa [3]: 35.3 fold

B10: biAb0242 (bispecific antibody, human IgG4 S228P, kappa)
heavy 1: B9 heavy 1
light 1: B9 light 1
heavy 2: not shown
light 2: SIVMTQTPKFLLVSAGDRVTITCKASQSVSNDVAWYQQKPGQSPKLLINYASSRYTGIPDRFTGSGYGTDFTFTISTVQAEDLAVYFCQQDYSSPYTFGGGTKLEIERTVAAPSVFIFPPSDEQLKSGTASVVCLLNNFYPREAKVQWKVDNALQSGNSQESVTEQDSKDSTYSLSSTLTLSKADYEKHKVYACEVTHQGLSSPVTKSFNRGEC
- Stimulation (fold): FXa generated by FVIIa with lipidated TLT-1 and 100 nM biAb, relative to free FVIIa [3]: 21.8 fold

B11: biAb0243 (bispecific antibody, human IgG4 S228P, kappa)
heavy 1: B9 heavy 1
light 1: B9 light 1
heavy 2: not shown
light 2: DIQMTQTTSSLSASLGDRVTISCRASQDISNYLNWYQQKPDGTVKLLIFYTSRLHSGVPSRFSGSGSGTDYSLTISNLEPEDIATYYCQQDTKLPYTFGGGTKLEMKRTVAAPSVFIFPPSDEQLKSGTASVVCLLNNFYPREAKVQWKVDNALQSGNSQESVTEQDSKDSTYSLSSTLTLSKADYEKHKVYACEVTHQGLSSPVTKSFNRGEC
- Stimulation (fold): FXa generated by FVIIa with lipidated TLT-1 and 100 nM biAb, relative to free FVIIa [3]: 25.5 fold
